Consider 15 variants from the RNAGym collection of RNA variant scans (doi:10.1093/molbev/msab373).

Sequences and labels used below:
B1: Azoarcus group I ribozyme (parent)
chain: GUGCCUUGCGCCGGGAAACCACGCAAGGGAUGGUGUCAAAUUCGGCGAAACCUAAGCGCCCGCCCGGGCGUAUGGCAACGCCGAGCCAAGCUUCGGCGCCUGCGCCGAUGAAGGUGUAGAGACUAGACGGCACCCACCUAAGGCAAACGCUAUGGUGAAGGCAUAGUCCAGGGAGUGGCGAAAGUCACACAAACCGG

The variants in the data set derive from B1. As to the kind of experiment: reverse-splicing fitness (ratio to wild type); higher = more active; in vitro selection; Mg2+ level not given. The method, boiled down:
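An in vitro group I ribozyme library with randomized positions was T7-transcribed and gel-purified. In triplicate, 10 pmol RNA in EPPS pH 7.5 was reacted with 50 pmoles of a 30-nt RNA substrate for 1 h at 37 °C across several added MgCl2 levels (1–48 mM), then stopped with EDTA. Products were reverse transcribed from a substrate-complementary primer, PCR-amplified and sequenced (HiSeq 4000). Fitness is a variant's read proportion after selection over that before, normalised to wild type.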
GUGCCUUGCGCCGGGAAACCACGCAAGGGAUGGUGUCAAAUUCGGCGAAACCUAAGCGCCCGCCCGGGCGUAUGGCAACGCCGAGCCAAGCUUCGGCGCCUGCGCCGAUGGAGGUGUAGAGACUAGACGGCACCCACCUAAGGCCAACGGUAUGGUGAAGGCAUAGUCAAGGGAGCGGCGAAAGUCACACAAACCGG [A111G A145C C150G C169A U176C]: the reverse-splicing fitness amounted to 0.00646.
The same measure for GUGCCUUGCGCCGGGAAACCACGCAAGGGAUGGUGUCAAAUUCGGCGAAACCUAAGCGCCCGCCCGGGCGUAUGGCAACGCCGAGCCAAGCUUCGGCGCCUGCGCCGAUGGAGGUGUAGAGACUAGACGGCACCCACCUAAGGCCAACGGUAUGGUGAAGGCAUAGUCAAGGGAGAGGCGAAAGUCACACAAACCGG [A111G A145C C150G C169A U176A]: 0.0077; for GUGCCUUGCGCCGGGAAACCACGCAAGGGAUGGUGUCAAAUUCGGCGAAACCUAAGCGCCCGCCCGGGCGUAUGGCAACGCCGAGCCAAGCUUCGGCGCCUGCGCCGAUGGAGGUGUAGAGACUAGACGGCACCCACCUAAGGCCAACGGUAUGGUGAAGGCAUAGUCAAGGGAGGGGCGAAAGUCACACAAACCGG [A111G A145C C150G C169A U176G]: 0.00652; for GUGCCUUGCGCCGGGAAACCACGCAAGGGAUGGUGUCAAAUUCGGCGAAACCUAAGCGCCCGCCCGGGCGUAUGGCAACGCCGAGCCAAGCUUCGGCGCCUGCGCCGAUGGAGGUGUAGAGACUAGACGGCACCCACCUAAGGCCAACGGUAUGGUGAAGGCAUAGUCGAGGGAGAGGCGAAAGUCACACAAACCGG [A111G A145C C150G C169G U176A]: 0.00824.
Turning to GUGCCUUGCGCCGGGAAACCACGCAAGGGAUGGUGUCAAAUUCGGCGAAACCUAAGCGCCCGCCCGGGCGUAUGGCAACGCCGAGCCAAGCUUCGGCGCCUGCGCCGAUGGAGGUGUAGAGACUAGACGGCACCCACCUAAGGCCAACGGUAUGGUGAAGGCAUAGUCGAGGGAGCGGCGAAAGUCACACAAACCGG [A111G A145C C150G C169G U176C], the reverse-splicing fitness came to 0.00562.
In the case of GUGCCUUGCGCCGGGAAACCACGCAAGGGAUGGUGUCAAAUUCGGCGAAACCUAAGCGCCCGCCCGGGCGUAUGGCAACGCCGAGCCAAGCUUCGGCGCCUGCGCCGAUGGAGGUGUAGAGACUAGACGGCACCCACCUAAGGCCAACGAUAUGGUGAAGGCAUAGUCCAGGGAGCGGCGAAAGUCACACAAACCGG [A111G A145C C150A U176C], the reverse-splicing fitness came to 0.128.
Regarding GUGCCUUGCGCCGGGAAACCACGCAAGGGAUGGUGUCAAAUUCGGCGAAACCUAAGCGCCCGCCCGGGCGUAUGGCAACGCCGAGCCAAGCUUCGGCGCCUGCGCCGAUGGAGGUGUAGAGACUAGACGGCACCCACCUAAGGCCAACGAUAUGGUGAAGGCAUAGUCCAGGGAGAGGCGAAAGUCACACAAACCGG [A111G A145C C150A U176A], the reverse-splicing fitness is 0.129.
With GUGCCUUGCGCCGGGAAACCACGCAAGGGAUGGUGUCAAAUUCGGCGAAACCUAAGCGCCCGCCCGGGCGUAUGGCAACGCCGAGCCAAGCUUCGGCGCCUGCGCCGAUGGAGGUGUAGAGACUAGACGGCACCCACCUAAGGCCAACGAUAUGGUGAAGGCAUAGUCCAGGGAGGGGCGAAAGUCACACAAACCGG [A111G A145C C150A U176G], the reverse-splicing fitness was 0.0755.
With GUGCCUUGCGCCGGGAAACCACGCAAGGGAUGGUGUCAAAUUCGGCGAAACCUAAGCGCCCGCCCGGGCGUAUGGCAACGCCGAGCCAAGCUUCGGCGCCUGCGCCGAUGGAGGUGUAGAGACUAGACGGCACCCACCUAAGGCCAACGGUAUGGUGAAGGCAUAGUCAAGGGAGUGGCGAAAGUCACACAAACCGG [A111G A145C C150G C169A], the reverse-splicing fitness was 0.0117.
Turning to GUGCCUUGCGCCGGGAAACCACGCAAGGGAUGGUGUCAAAUUCGGCGAAACCUAAGCGCCCGCCCGGGCGUAUGGCAACGCCGAGCCAAGCUUCGGCGCCUGCGCCGAUGGAGGUGUAGAGACUAGACGGCACCCACCUAAGGCCAACGGUAUGGUGAAGGCAUAGUCGAGGGAGUGGCGAAAGUCACACAAACCGG [A111G A145C C150G C169G], the reverse-splicing fitness was 0.018.
Take GUGCCUUGCGCCGGGAAACCACGCAAGGGAUGGUGUCAAAUUCGGCGAAACCUAAGCGCCCGCCCGGGCGUAUGGCAACGCCGAGCCAAGCUUCGGCGCCUGCGCCGAUGGAGGUGUAGAGACUAGACGGCACCCACCUAAGGCCAACGAUAUGGUGAAGGCAUAGUCUAGGGAGCGGCGAAAGUCACACAAACCGG [A111G A145C C150A C169U U176C]: the reverse-splicing fitness amounted to 0.0113.
Consider GUGCCUUGCGCCGGGAAACCACGCAAGGGAUGGUGUCAAAUUCGGCGAAACCUAAGCGCCCGCCCGGGCGUAUGGCAACGCCGAGCCAAGCUUCGGCGCCUGCGCCGAUGGAGGUGUAGAGACUAGACGGCACCCACCUAAGGCCAACGAUAUGGUGAAGGCAUAGUCUAGGGAGGGGCGAAAGUCACACAAACCGG [A111G A145C C150A C169U U176G], for which the reverse-splicing fitness was found to be 0.00473.
On to GUGCCUUGCGCCGGGAAACCACGCAAGGGAUGGUGUCAAAUUCGGCGAAACCUAAGCGCCCGCCCGGGCGUAUGGCAACGCCGAGCCAAGCUUCGGCGCCUGCGCCGAUGGAGGUGUAGAGACUAGACGGCACCCACCUAAGGCCAACGAUAUGGUGAAGGCAUAGUCUAGGGAGAGGCGAAAGUCACACAAACCGG [A111G A145C C150A C169U U176A], for which the reverse-splicing fitness came out at 0.0152.
Regarding GUGCCUUGCGCCGGGAAACCACGCAAGGGAUGGUGUCAAAUUCGGCGAAACCUAAGCGCCCGCCCGGGCGUAUGGCAACGCCGAGCCAAGCUUCGGCGCCUGCGCCGAUGGAGGUGUAGAGACUAGACGGCACCCACCUAAGGCCAACGAUAUGGUGAAGGCAUAGUCUAGGGAGUGGCGAAAGUCACACAAACCGG [A111G A145C C150A C169U], the reverse-splicing fitness is 0.0168.
Take GUGCCUUGCGCCGGGAAACCACGCAAGGGAUGGUGUCAAAUUCGGCGAAACCUAAGCGCCCGCCCGGGCGUAUGGCAACGCCGAGCCAAGCUUCGGCGCCUGCGCCGAUGGAGGUGUAGAGACUAGACGGCACCCACCUAAGGCCAACGGUAUGGUGAAGGCAUAGUCCAGGGAGUGGCGAAAGUCACACAAACCGG [A111G A145C C150G]: the reverse-splicing fitness was 0.45.
